Measured values reported in US20210238276A1 (INTEGRAL MOLECULAR, published 2021).
Numbering of substitutions follows the chain as printed.

Key:
Assay in all cases: flow cytometry, alanine-scan library in HEK-293T, with cytochalasin B
hsGLUT4 L296A = molecular target: T1, hsGLUT4 L296A (human, UniProt P14672 1-509)
T1 sequence: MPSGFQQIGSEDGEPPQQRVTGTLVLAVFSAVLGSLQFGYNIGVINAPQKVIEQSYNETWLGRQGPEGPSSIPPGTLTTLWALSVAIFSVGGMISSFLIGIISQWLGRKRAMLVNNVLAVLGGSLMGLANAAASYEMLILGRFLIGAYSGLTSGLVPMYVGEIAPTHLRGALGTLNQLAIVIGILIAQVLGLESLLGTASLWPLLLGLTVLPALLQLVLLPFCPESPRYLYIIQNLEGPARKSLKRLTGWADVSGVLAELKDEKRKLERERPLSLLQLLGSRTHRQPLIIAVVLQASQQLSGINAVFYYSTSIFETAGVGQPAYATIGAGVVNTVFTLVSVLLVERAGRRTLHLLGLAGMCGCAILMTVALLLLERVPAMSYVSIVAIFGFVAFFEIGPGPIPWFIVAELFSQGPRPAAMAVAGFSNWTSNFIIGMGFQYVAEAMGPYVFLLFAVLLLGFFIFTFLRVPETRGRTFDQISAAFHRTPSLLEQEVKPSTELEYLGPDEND
Protocol: (§1) Because of the state-dependence of the isolated MAbs, we next wished to understand the mechanism by which each MAb could recognize GLUT4 in its different conformations. The residues required for binding of each MAb were determined using shotgun mutagenesis comprehensive alanine scanning (Davidson E & Doranz B J (2014) A High-Throughput Shotgun Mutagenesis Approach to Mapping B-cell Antibody Epitopes. Immunology, which is hereby incorporated by reference in its entirety). All residues of hsGLUT4 were individually mutated to alanine, with existing alanines changed to serines. Mutations were obtained for 508 of the 509 residues of GLUT4 (excluding the initiating methionine). The entire mutation library was transfected into human HEK-293T cells in a 384-well array format (one clone per well) and assessed for immunoreactivity using high-throughput flow cytometry.
(§2) HEK-293T cells were transfected by CaPO₄ with plasmids in 6-well culture plates (Falcon) at 750,000 cells/well. At 48 hours post transfection, cells were stained with anti-V5 and anti-GLUT4 MAbs (purified scFv, 2 μg/ml) followed by biotinylated goat anti-mouse or human antibody (1:500) and streptavidin-PerCP (1:500). Fluorescence was detected using an Intellicyt high-throughput flow cytometer (HTFC; Intellicyt, Albuquerque, N. Mex.). For cell permeabilization, cells were treated with saponin at 0.1% in PBS for 20 minutes. To discriminate intact (live) and permeabilized (dead) cells without the use of detergent, propidium iodide (PI) was added to HEK-293T cells at 1 ug/ml just prior to flow cytometry. Where indicated, cytochalasin B (Sigma) was used at a final concentration of 10 uM and phloretin (Sigma) was used at a final concentration of 100 uM, each added in 10% NGS for 30 minutes prior to antibody staining as well as included with the primary antibody.

hsGLUT4 G356A = molecular target: T2, hsGLUT4 G356A (human, UniProt P14672 1-509)
T2 sequence: T1 sequence with A296L, G356A
Protocol: as §1, §2

hsGLUT4 P224A = molecular target: T3, hsGLUT4 P224A (human, UniProt P14672 1-509)
T3 sequence: T1 sequence with P224A, A296L
Protocol: as §1, §2

hsGLUT4 D506A = molecular target: T4, hsGLUT4 D506A (human, UniProt P14672 1-509)
T4 sequence: T1 sequence with A296L, D506A
Protocol: as §1, §2

B1: AB102 (Fc fusion)
scFv: ALTQPSSVSANLGGTVKITCSGGGSYGYGWYQQKSPGSAPVTVIYSNDQRPSDIPSRFSGSKSGSTATLTITGVRAEDEAIYYCGSTDSDYVGIFGAGTTLTVLGQSSRSSGGGGSSGGGGSAVTLDESGGGLQTPGGTLSLVCKASGFDFSSYATIWVRQAPGKGLEWVAGISGTGTGSSTGYAPAVKGRATISRDNGQSTVRLQLNNLRAEDTGSYFCAKSTGYGDSWIYPDSIDAWGHGTEVIVSS
notes: also called MAb AB102; not shown: Fc fragment of human IgG1, cloned in frame with the scFv
% of binding to wild type GLUT4 (hsGLUT4 L296A): 69%
% of binding to wild type GLUT4 (hsGLUT4 G356A): 72%
% of binding to wild type GLUT4 (hsGLUT4 P224A): 29%
% of binding to wild type GLUT4 (hsGLUT4 D506A): 60%
